Results reported in patent publication US20250002594A1 (SHANGHAI EPIMAB BIOTHERAPEUTICS, published 2025).
Each block holds one binder with its values, some of them ahead of it.

Tests used:
[1] = molecular target: T1, CD122/CD132 complex on HEK-Blue IL-2 cells (UniProt P14784 27-551; P31785 23-369, limits assumed); experiment: cell-based or functional assay
T1 sequence (looked up) 1: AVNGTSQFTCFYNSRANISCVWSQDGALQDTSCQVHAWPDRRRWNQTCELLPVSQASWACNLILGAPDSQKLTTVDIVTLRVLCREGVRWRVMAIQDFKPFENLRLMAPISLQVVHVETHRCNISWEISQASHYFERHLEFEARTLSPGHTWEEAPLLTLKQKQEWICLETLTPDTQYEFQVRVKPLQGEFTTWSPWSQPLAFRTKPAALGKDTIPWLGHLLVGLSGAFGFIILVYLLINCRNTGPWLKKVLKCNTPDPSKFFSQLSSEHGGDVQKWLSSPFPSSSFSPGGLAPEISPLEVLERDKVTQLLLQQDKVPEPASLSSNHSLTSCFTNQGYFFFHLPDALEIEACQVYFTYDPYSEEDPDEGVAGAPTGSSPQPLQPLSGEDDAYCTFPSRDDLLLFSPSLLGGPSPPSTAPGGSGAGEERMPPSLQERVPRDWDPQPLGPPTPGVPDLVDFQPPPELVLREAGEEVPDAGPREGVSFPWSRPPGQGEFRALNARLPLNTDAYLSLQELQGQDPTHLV
T1 sequence (looked up) 2: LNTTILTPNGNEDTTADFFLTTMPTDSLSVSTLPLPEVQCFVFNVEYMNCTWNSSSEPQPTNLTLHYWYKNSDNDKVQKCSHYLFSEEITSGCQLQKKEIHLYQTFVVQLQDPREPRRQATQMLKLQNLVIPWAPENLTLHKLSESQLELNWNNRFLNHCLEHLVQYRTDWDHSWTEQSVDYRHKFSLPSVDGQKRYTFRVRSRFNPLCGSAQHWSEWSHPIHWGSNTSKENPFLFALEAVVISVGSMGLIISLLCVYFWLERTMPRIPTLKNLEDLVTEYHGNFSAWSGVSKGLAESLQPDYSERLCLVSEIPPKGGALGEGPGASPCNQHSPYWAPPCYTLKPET

[2] = molecular target: T2, human CD132 on HEK293 cells (human, UniProt P31785 23-369); experiment: Flow cytometry (Median-APC) on HEK293/CD132 cells; the box gives no unit, the axis is Ab conc.(nM); the curve has no upper plateau in the range shown
T2 construct: whole, on cells; also called cell surface CD132
T2 sequence (looked up): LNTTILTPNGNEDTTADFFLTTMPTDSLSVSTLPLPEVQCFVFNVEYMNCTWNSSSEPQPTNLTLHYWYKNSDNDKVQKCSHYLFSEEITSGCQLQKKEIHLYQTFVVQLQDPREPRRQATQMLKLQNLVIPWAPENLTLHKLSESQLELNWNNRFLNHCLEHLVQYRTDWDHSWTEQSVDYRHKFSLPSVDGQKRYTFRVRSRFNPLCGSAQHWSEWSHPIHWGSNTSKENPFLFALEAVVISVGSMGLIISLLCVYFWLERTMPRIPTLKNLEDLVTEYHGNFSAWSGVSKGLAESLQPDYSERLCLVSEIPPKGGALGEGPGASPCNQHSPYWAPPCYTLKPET
Procedure: (§1) Briefly, a 96-well plate was seeded with 3×10⁵ cells each well, centrifuged at 400 g for 5 minutes and supernatants discarded, then added 100 μl of antibody (5× serial dilutions, 0.0064 to 100 nM) each well and gently mixed. After 60 minutes of incubation at 4° C., plates were washed several times to remove excess antibodies. Secondary fluorochrome-conjugated goat anti-human IgG antibody (Jackson Immunoresearch, Cat No. 109-606-098) was then added and incubated with cells at 4° C. for 20 minutes. After another round of centrifugation and washing, cells were resuspended in assay buffer (1X PBS containing 2% FBS) for reading on a flow-cytometer. Median Fluorescence Intensity (MFI) readouts were plotted against antibody concentration and analyzed with GraphPad Prism 6.0 software.

[3] = molecular target: T3, human CD122 on HEK293 cells (human, UniProt P14784 27-551); experiment: Flow cytometry (Median-APC) on HEK293/CD122 cells; the box gives no unit, the axis is Ab conc.(nM)
T3 construct: whole, on cells; also called cell surface CD122
T3 sequence (looked up): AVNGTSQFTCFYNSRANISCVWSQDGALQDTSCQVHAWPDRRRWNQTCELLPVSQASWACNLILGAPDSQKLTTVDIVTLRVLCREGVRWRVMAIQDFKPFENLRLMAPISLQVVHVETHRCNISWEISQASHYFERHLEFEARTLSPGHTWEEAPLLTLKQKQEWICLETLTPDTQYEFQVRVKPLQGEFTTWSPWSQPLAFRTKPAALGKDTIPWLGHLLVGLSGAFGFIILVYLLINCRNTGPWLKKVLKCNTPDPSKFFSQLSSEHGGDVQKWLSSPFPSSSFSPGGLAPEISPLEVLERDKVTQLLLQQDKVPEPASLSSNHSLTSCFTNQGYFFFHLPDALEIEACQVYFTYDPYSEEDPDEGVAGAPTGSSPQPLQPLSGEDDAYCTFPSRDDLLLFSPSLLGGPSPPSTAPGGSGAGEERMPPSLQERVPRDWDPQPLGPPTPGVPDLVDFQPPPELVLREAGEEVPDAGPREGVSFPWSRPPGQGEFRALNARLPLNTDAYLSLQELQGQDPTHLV
Procedure: as §1

recombinant cyno CD122 = molecular target: T4, recombinant cyno CD122 (cynomolgus, UniProt Q38J85 27-239, limits assumed); experiment: GCI (WAVEsystem), FIT-Ig captured by anti-human IgG Fc, antigen in solution
T4 construct: also called cynomolgus CD122
T4 sequence (looked up): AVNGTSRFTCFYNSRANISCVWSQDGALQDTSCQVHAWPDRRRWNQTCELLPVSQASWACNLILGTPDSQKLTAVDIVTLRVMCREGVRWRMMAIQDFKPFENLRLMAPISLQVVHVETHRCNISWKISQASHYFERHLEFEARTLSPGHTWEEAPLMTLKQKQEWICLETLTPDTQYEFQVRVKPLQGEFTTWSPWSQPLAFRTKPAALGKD
Procedure: (§2) Binding affinity and kinetics constants of humanized CD122/CD132 FIT-Ig were determined using a label-free biosensor on WAVEsystem (Creoptix AG, Switzerland) by grating-coupled interferometry (GCI). Briefly, a PCP WAVEchip (Creoptix AG) was pre-immobilized with goat anti-human IgG Fc antibody to a density of 3830 pg/mm² by amine coupling, and used to capture humanized CD122/CD132 FIT-Ig generated from Example 3.2.1 to a density of ˜90 pg/mm², then exposed to recombinant human/cyno CD122 or CD132 serially diluted (3× dilutions from 200 nM to […] for human CD122, human CD132 and cyno CD132, respectively; and from 1000 nM to 1.37 nM for cyno CD122) in 1X HBS-EP+ buffer (Cytiva, Cat No. BR100669) by injection at 60 μL/min for 250s to assess association, followed by 1200s dissociation. After each round of association and dissociation, WAVEchip surface was regenerated by subject to pH 1.5 Glycine-HCl buffer injection at 60 μL/min for 120s. Sensorgrams were recorded at 25° C., the data were analyzed on WAVEcontrol (Creoptix AG) and double referenced by subtracting the signals from blank injections and the reference channel. A Langmuir 1:1 model was used for data fitting.

recombinant human CD132 [4] = molecular target: T5, recombinant human CD132 (human, UniProt P31785 23-262, limits assumed); experiment: as above
T5 construct: also called IL-2Rγ
T5 sequence (looked up): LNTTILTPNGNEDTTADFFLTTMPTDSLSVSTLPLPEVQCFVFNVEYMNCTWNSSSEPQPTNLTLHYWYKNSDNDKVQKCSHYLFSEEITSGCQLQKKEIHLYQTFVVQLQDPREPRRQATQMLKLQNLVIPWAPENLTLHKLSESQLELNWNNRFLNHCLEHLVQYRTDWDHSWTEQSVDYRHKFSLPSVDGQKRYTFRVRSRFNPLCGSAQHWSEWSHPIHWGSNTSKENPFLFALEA
Procedure: as §2

recombinant human CD122 [5] = molecular target: T6, recombinant human CD122 (human, UniProt P14784 27-239, limits assumed); experiment: as above
T6 construct: also called IL-2Rβ
T6 sequence (looked up): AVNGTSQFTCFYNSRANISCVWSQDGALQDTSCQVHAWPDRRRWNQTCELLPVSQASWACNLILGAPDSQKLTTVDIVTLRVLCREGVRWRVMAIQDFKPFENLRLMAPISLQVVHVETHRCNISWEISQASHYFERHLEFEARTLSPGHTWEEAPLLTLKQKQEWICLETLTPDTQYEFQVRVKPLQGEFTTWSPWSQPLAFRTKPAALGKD
Procedure: as §2

recombinant cyno CD132 = molecular target: T7, recombinant cyno CD132 (cynomolgus, UniProt A0A2K5VGJ6 23-262); experiment: as above
T7 construct: also called cynomolgus CD132
T7 sequence: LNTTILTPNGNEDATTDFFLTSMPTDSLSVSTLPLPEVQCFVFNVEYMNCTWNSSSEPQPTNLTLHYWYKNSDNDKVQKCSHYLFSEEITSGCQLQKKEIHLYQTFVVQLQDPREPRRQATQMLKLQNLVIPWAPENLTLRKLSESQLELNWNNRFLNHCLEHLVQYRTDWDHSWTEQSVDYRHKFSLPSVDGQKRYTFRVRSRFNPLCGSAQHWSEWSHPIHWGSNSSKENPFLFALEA
Procedure: as §2

recombinant human CD132 [6] = molecular target: T5, recombinant human CD132; experiment: hybridoma supernatant screening, method not described
recombinant human CD122 [7] = molecular target: T6, recombinant human CD122; experiment: as above
[8] = molecular target: T3, human CD122 on HEK293 cells; experiment: Flow cytometry (MFI) on HEK293 cells overexpressing human CD122; the table gives no unit, the axis is Fab conc.(nM)
Procedure: as §1

recombinant human CD122 [9] = molecular target: T6, recombinant human CD122; experiment: ELISA, plate coated with 1 µg/mL recombinant human CD122
Procedure: (§3) Plates were washed three times with PBST, added HRP labeled anti-human IgG secondary antibody and incubated at RT for 15 minutes, then washed 5 times with PBST. For color development, 100 μl of tetramethylbenzidine (TMB) chromogenic solution was added to each well, the reaction was quenched by 1 N HCl and absorbance at 450 nm was measured on a microplate reader. Binding signals were plotted against antibody concentration with GraphPad Prism 6.0 software and EC₅₀ values were calculated accordingly.

recombinant human CD132 [10] = molecular target: T5, recombinant human CD132; experiment: ELISA, plate coated with 1 µg/mL recombinant human CD132
Procedure: as §3

[11] = molecular target: T2, human CD132 on HEK293 cells; experiment: Flow cytometry (MFI) on HEK293 cells overexpressing human CD132; the table gives no unit, the axis is Fab conc.(nM); the curve has no upper plateau in the range shown
Procedure: as §1

B2: CD132-mAb17 (antibody, V domains shown)
VH: EVQLQQPGSELVRPGASVKLSCKASGYTFTSYWMHWMKQRPGQGLEWIGHIYLGGGATNYAEKFRSKATLTADTSSSTAYMQLSSLTSEDSAVYYCTRSQPYYYGMDSWGQGTSVTVSS
VL: DIQMTQTPSSLSASLGDRVTISCRASQDISNYLNWYQQKPDGTVKLLIYYKSRLHSGVPSRFSGSGSGTEYSLTINNLEQEDFATYFCHQGHTIPFTFGSGTKLEIK
notes: Mouse hybridoma antibody; also called clone #CD132-mAb17; mAb CD132-mAb17
binding result (recombinant human CD132 [6]): binds

B3: CD122-mAb77 (antibody, V domains shown)
VH: QVQLQQSGPELVKPGASVKMSCKASGYRFSDYVISWVKQRSGQGLEWIGEIYPGDGNTYYNEMFKGRATLTADKSPNTAYMKLSSLTSEDSALYFCARGSYTYDNYAMDFWGQGTSVTVSS
VL: DVLMTQTPLSLPVSLGDQASISCRSSQNIVHSNGNTYLEWYLQKPGQSPKLLIYKVSNRFSGVPDRFSGSGSGTDFTLKISRVEAEDLGLYYCFQGSHIPWTFGGGTKLEIK
notes: Mouse hybridoma antibody; also called clone #CD122-mAb77
binding result (recombinant human CD122 [7]): binds

The next lines start with the values.

EC50 from SEAP reporter gene assay [1]: 0.19 nM
EC50 [2]: 17.8 nM
EC50 [3]: 5.27 nM
Kd (recombinant cyno CD122): 91.6 nM
koff (recombinant cyno CD122): 0.00697 s⁻¹
kon (recombinant cyno CD122): 76100 M⁻¹ s⁻¹
Kd (recombinant human CD132 [4]): 9.02 nM
koff (recombinant human CD132 [4]): 0.000339 s⁻¹
kon (recombinant human CD132 [4]): 37500 M⁻¹ s⁻¹
Kd (recombinant human CD122 [5]): 17.1 nM
koff (recombinant human CD122 [5]): 0.00107 s⁻¹
kon (recombinant human CD122 [5]): 62700 M⁻¹ s⁻¹
Kd (recombinant cyno CD132): 10.6 nM
koff (recombinant cyno CD132): 0.000286 s⁻¹
kon (recombinant cyno CD132): 27000 M⁻¹ s⁻¹
B1: huFIT2019-86b-51 (bispecific antibody, human IgG1, kappa, L234A L235A)
chain 1: not shown
chain 2: EVQLVQSGAEVKKPGASVKVSCKASGYTFTDYVISWVRQATGQGLEWMGEIYPGDAQTYYNEMFKGRVTMTRDTSISTAYMELSSLRSEDTAVYYCARGSYTYDNYAMDFWGQGTTVTVSSASTKGPSVFPLAPSSKSTSGGTAALGCLVKDYFPEPVTVSWNSGALTSGVHTFPAVLQSSGLYSLSSVVTVPSSSLGTQTYICNVNHKPSNTKVDKKVEPKSC
chain 3: not shown
notes: also called huFIT2019-8b-51

EC50 from SEAP reporter gene assay [1]: 0.125 nM
EC50 [8]: 2.2 nM
EC50 (recombinant human CD122 [9]): 0.324 nM
EC50 (recombinant human CD132 [10]): 0.662 nM
EC50 [11]: 75.6 nM
B4: FIT2019-86b (bispecific antibody, human IgG1, kappa, L234A L235A)
chain 1: not shown
chain 2: QVQLQQSGPELVKPGASVKMSCKASGYRFSDYVISWVKQRSGQGLEWIGEIYPGDGNTYYNEMFKGRATLTADKSPNTAYMKLSSLTSEDSALYFCARGSYTYDNYAMDFWGQGTSVTVSSASTKGPSVFPLAPSSKSTSGGTAALGCLVKDYFPEPVTVSWNSGALTSGVHTFPAVLQSSGLYSLSSVVTVPSSSLGTQTYICNVNHKPSNTKVDKKVEPKSC
chain 3: DIQMTQTPSSLSASLGDRVTISCRASQDISNYLNWYQQKPDGTVKLLIYYKSRLHSGVPSRFSGSGSGTEYSLTINNLEQEDFATYFCHQGHTIPFTFGSGTKLEIKRTVAAPSVFIFPPSDEQLKSGTASVVCLLNNFYPREAKVQWKVDNALQSGNSQESVTEQDSKDSTYSLSSTLTLSKADYEKHKVYACEVTHQGLSSPVTKSFNRGEC
notes: FIT-Ig with mouse V domains of CD122-mAb77 (outer Fab) and CD132-mAb17 (inner Fab), human constant domains; also called anti-CD122/CD132 FIT2019-86b
